Target: T1, human IL-2Rβ (CD122 protein, Fc Tag) (27-239) (human), P14784
T1 chain: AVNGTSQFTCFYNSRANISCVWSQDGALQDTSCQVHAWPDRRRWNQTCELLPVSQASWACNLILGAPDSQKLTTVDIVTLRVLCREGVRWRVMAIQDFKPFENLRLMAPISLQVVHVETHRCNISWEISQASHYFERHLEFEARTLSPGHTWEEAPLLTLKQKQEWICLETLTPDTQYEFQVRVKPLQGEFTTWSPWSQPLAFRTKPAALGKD
Assay: competitive binding ELISA (Example 28)

IC50: < 10 µM
Binder: CCYQAMVGDLCDFC (modifications not checked) [IL-2Rβ ligand SEQ ID NO: 83]

Source: patent publication US20220119492A1
